{"source": "patent US7745574B2", "about": "“Compounds that regulate apoptosis” (The Burnham Institute, priority 2005, dated 2010)", "key": {"Bcl-2 [1]": {"target": "T1, Bcl-2 (Homo sapiens, UniProt P10415)", "assay": "Binding to Bcl-2, method not stated", "parameters": "precipitated endogenous Bcl-2 in cells treated with L-NuBCP-9-r8 or D-NuBCP-9-r8; endogenous in cells"}, "H460 lung cancer cells": {"system": "H460 lung cancer cells", "assay": "Apoptosis in H460 lung cancer cells", "assay_type": "cell-based"}, "Bcl-2 [2]": {"target": "T1, Bcl-2", "assay": "Co-immunoprecipitation with Bcl-2 in HEK293T cells", "assay_type": "binding", "parameters": "expressed in transfected cells; host or cells: HEK293T", "procedure": "Nur77 peptide binds anti-apoptotic Bcl-2 family members. Nur77-peptide binds Bcl-B, Bfl-1, and Bcl-2, but not Mcl-1 and Bcl-xL. […] The expression vector for the GFP-Nur77/489-497 fusion was transfected into HEK293T cells together with or without the indicated expression vector for myc-tagged Bcl-2 family member. Cell lysates were prepared and analyzed for interaction of Nur77/489-497 with Bcl-2 family members by co-immunoprecipitation assay using anti-Myc antibody. Immunoprecipitates were then separated on SDS/PAGE and immunoblotted using anti-GFP antibody. […] Nur77/Bcl-2 interaction assays—Reporter gene assays using NurRE-tk-CAT in CV-1 cells, and GST pull-down assay were described previously (Li, et al. 2000 Science 289:1159-1164). For the mammalian two-hybrid assays, CV-1 cells were co-transfected with pcDNA-Gal4TAD-Nur77 or pcDNA-Gal4TAD-Nur77/ΔDBD and pcDNA-Gal4 DBD-Bcl-2/ΔTM along with a luciferase reporter gene driven by four copies of the Gal-4-binding site. The cells were harvested and reporter gene activity was measured. For Co-IP assays, HEK293T cells were transiently transfected with various expression plasmids using a modified calcium phosphate precipitation method (Wu et al, 1997) in the presence of caspase inhibitors (zVAD-fmk) to prevent degradation of Nur77 protein due to apoptosis. Cells were suspended in lysis buffer (50 mM Tris-HCl, PH7.4; 150 mM NaCl; 20 mM EDTA; 1% NP-40; 1 mM PMSF; 50 μg/ml Leupeptin; […]; 0.1 mM Na3VO4; and 1 mM DTT). Cells extracts were cleared by incubation with the Protein A/G plus Agarose beads (Santa Cruz) and then incubated with appropriate antibody and 30 μl of Protein A or G plus Agarose beads overnight at 4° C. […] Immunoreactive products were detected by chemiluminescence with an enhanced chemiluminescence system (ECL) (Amersham)."}, "[3]": {"system": "normal primary mammary epithelial cells", "assay": "Apoptosis in normal primary mammary epithelial cells", "assay_type": "cell-based", "procedure": "(§1) Apoptosis assays—For nuclear morphological change analysis, cells were trypsinized, washed with PBS, fixed with 3.7% paraformaldehyde, and stained with DAPI (4,6-diamidino-2-phenylindole) (50 μg/ml) to visualize the nuclei by UV-microscopy. The percentages of apoptotic cells were determined by counting 300 GFP-positive cells, scoring cells having nuclear fragmentation and/or chromatin condensation."}, "[4]": {"system": "ZR-75-1 breast cancer cells", "assay": "Apoptosis in ZR-75-1 breast cancer cells", "assay_type": "cell-based", "details": "<10 μM peptide", "procedure": "as §1"}, "[5]": {"system": "various cancer cell lines", "assay": "Apoptosis in various cancer cell lines", "assay_type": "cell-based", "procedure": "as §1"}, "Bcl-2 [6]": {"target": "T1, Bcl-2", "assay": "Immunoprecipitation of endogenous Bcl-2 by anti-Bcl-2/BH3 antibody in treated cells", "assay_type": "cell-based", "parameters": "precipitated endogenous Bcl-2 in cells treated with L-NuBCP-9-r8 or D-NuBCP-9-r8; endogenous in cells"}, "Bcl-2 [7]": {"target": "T1, Bcl-2", "assay": "Bcl-2 conformational change, anti-Bcl-2/BH3 antibody staining of HEK293T cells transfected with Bcl-2", "assay_type": "cell-based", "parameters": "expressed in transfected cells; host or cells: HEK293T", "details": "flow cytometry", "procedure": "Such a Bcl-2 conformation is recognized by an anti-Bcl-2 antibody raised against the Bcl-2 BH3 domain. To determine whether NuBCP-9 induced a Bcl-2 conformational change, flow cytometric assays were conducted which HEK293T cells transfected with Bcl-2 were exposed to NuBCPs and subsequently stained with the anti-Bcl-2/BH3 antibody."}, "Bcl-XL": {"target": "Bcl-XL (Homo sapiens, UniProt Q07817)", "sequence (Q07817 whole entry, species assumed)": "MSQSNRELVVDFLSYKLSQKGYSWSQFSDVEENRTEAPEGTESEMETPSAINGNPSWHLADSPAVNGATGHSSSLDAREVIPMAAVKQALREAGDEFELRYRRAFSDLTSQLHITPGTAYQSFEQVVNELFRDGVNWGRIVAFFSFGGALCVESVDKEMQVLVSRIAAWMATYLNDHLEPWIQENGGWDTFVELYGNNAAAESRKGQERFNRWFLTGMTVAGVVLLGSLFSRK", "assay": "Circular dichroism (CD) spectroscopy, Bcl-XL", "assay_type": "binding", "procedure": "(§2) Circular dichroism (CD) spectroscopy. Stock solutions of 3 mM peptide in 30% acetonitrile/water were added to 0.5 mL of 2 μM purified GST-proteins in PBS, pH 7.6. CD spectra were obtained in a 0.2 cm pathlength cell at 20° C. using an AVIV 62 DS spectropolarimeter for a wavelength range from 200 to 260 nm with a step size of 1 nm averaged for 5 sec. Three spectra were corrected for background and averaged for each sample. The Kd was determined using nonlinear regression analysis for a one-site-binding model (χ2>0.98). Stoichiometry was determined from a […] (Jones, G. et al. 2002 Tet. Let. 43 :6079-6082)."}, "Bcl-2 [8]": {"target": "T1, Bcl-2", "assay": "FP competition assay on Bcl-2", "assay_type": "binding", "procedure": "(§3) Fluorescence polarization (FP) assays. GST-Bcl-2, GST-Bcl-XL, or GST protein was briefly incubated with FITC-conjugated peptide with or without competitors in Greiner Fluotrac 600 96-well microplates. Fluorescence polarization was recorded using an Analyst HT 96-384 microplate reader (Molecular Devices, Sunnyvale, Calif.) with excitation wavelength set at 485 nm and dynamic polarizer for emission at 530 nm."}, "GST [9]": {"target": "T2, GST (Schistosoma japonicum, UniProt P08515)", "T2 sequence (P08515 whole entry)": "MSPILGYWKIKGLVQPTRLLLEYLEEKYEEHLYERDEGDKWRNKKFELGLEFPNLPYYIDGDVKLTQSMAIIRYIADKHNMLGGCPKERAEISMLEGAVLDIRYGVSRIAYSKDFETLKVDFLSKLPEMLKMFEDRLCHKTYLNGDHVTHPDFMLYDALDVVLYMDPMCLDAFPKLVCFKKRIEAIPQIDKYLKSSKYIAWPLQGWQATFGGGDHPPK", "assay": "Circular dichroism (CD) spectroscopy, GST", "assay_type": "binding", "procedure": "as §2"}, "GST-Bcl-2 [10]": {"target": "T3, GST-Bcl-2 (Homo sapiens, UniProt P10415)", "T3 construct": "made in house", "T3 sequence (P10415 whole entry)": "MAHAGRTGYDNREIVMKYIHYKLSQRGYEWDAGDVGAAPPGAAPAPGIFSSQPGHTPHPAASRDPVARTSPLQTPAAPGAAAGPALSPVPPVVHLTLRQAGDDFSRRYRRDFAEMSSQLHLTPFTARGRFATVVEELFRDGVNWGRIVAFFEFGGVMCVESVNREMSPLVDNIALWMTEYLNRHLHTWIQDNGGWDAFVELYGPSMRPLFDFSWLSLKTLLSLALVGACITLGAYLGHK", "assay": "Circular dichroism (CD) spectroscopy, GST-Bcl-2", "assay_type": "binding", "procedure": "as §2"}, "Jurkat or CEM cells": {"system": "Jurkat or CEM cells", "assay": "Apoptosis in Jurkat or CEM cells stably expressing Bcl-2", "assay_type": "cell-based", "procedure": "Cell culture. H460 lung cancer cells were maintained in RPMI 1640 medium supplemented with 10% fetal bovine serum (FBS). HEK293T embryonic kidney cells were grown in DME medium supplemented with 10% FBS. Jurkat and Jurkat cells stably expressing Bcl-2 were kindly provided by Dr. John Reed, and they were maintained in RPMI1640 medium."}, "GST-Bcl-2 [11]": {"target": "T3, GST-Bcl-2", "assay": "Fluorescence polarization (FP) assay, GST-Bcl-2", "assay_type": "binding", "procedure": "as §3"}, "GST-Bcl-XL": {"target": "GST-Bcl-XL (Homo sapiens, UniProt Q07817)", "sequence (Q07817 whole entry, species assumed)": "as the sequence (Q07817 whole entry, species assumed) above", "assay": "Fluorescence polarization (FP) assay, GST-Bcl-XL", "assay_type": "binding", "procedure": "as §3"}, "GST [12]": {"target": "T2, GST", "assay": "Fluorescence polarization (FP) assay, GST", "assay_type": "binding", "procedure": "as §3"}}, "note": "Where a SMILES comes first, the peptide text is derived from it. Bridges are numbered along the chain shown (N, C = ends). [ ]: non-standard residue; d: D form. The star is where a group is joined. FITC = O=C1OC2(c3ccc(O)cc3Oc3cc(O)ccc32)c2ccc(NC(=S)*)cc21; Ahx = NCCCCCC(=O)O"}
{"molecule": "D-Bad BH3 peptide-CC-Ant: D-enantiomer of Bad BH3 peptide, disulfide-linked to Ant (Ac-NLWAAQRYGRELRRMADEFVDAFKKCCRQIKIWFQNRRMKWKK-NH2; disulfide 26-27; not fully specified (some residues); also: D-amino acids, extent within chain not given here) [reference compound]", "values": [{"measurement": "binding to Bcl-2", "setting": "Bcl-2 [1]", "value": "did not bind"}, {"measurement": "apoptotic effect", "setting": "H460 lung cancer cells; H460 cells, peptides conjugated with CPP, 10 μM", "value": "not apoptotic"}]}
{"molecule": "acetyl---GDWIDSILAFSRSLHSLLVDKKC-X-rrrrrrrr (Ac-GDWIDSILAFSRSLHSLLVDKKC[Ahx][dR][dR][dR][dR][dR][dR][dR][dR]-NH2; also: Cys thiol joined to chloroacetyl-Ahx by thioether) [NuBCP-20-r8]", "values": [{"measurement": "interaction with Bcl-2 by co-immunoprecipitation", "setting": "Bcl-2 [2]", "value": "binding"}, {"measurement": "apoptotic potency compared with BH3 peptides derived from t-Bid", "setting": "H460 lung cancer cells", "value": "more potent"}, {"measurement": "apoptosis", "setting": "[3]", "value": "resistant"}, {"measurement": "apoptosis", "setting": "[4]", "value": "> 80", "unit": "%"}, {"measurement": "apoptotic effects", "setting": "[5]", "value": "potent apoptotic effects"}]}
{"molecule": "t-Bid BH3 peptide-r8: BH3 peptide derived from pro-apoptotic Bcl-2 family member t-Bid, conjugated with r8 (Ac-EDIIRNIARHLAQVGDSMDRC[Ahx][dR][dR][dR][dR][dR][dR][dR][dR]-NH2; also: Cys thiol joined to chloroacetyl-Ahx by thioether) [reference compound]", "values": [{"measurement": "precipitation of endogenous Bcl-2 by anti-Bcl-2/BH3 antibody", "setting": "Bcl-2 [6]", "value": "not"}, {"measurement": "Bcl-2 immunofluorescence by anti-Bcl-2/BH3 antibody", "setting": "Bcl-2 [7]", "value": "did not show any Bcl-2 immunofluorescence"}]}
{"molecule": "CC(=O)N[C@@H](Cc1ccccc1)C(=O)N[C@@H](CO)C(=O)N[C@@H](CCCNC(=N)N)C(=O)N[C@@H](CO)C(=O)N[C@@H](CC(C)C)C(=O)N[C@@H](Cc1c[nH]cn1)C(=O)N[C@@H](CO)C(=O)N[C@@H](CC(C)C)C(=O)N[C@@H](CC(C)C)C(N)=O", "note": "[NuBCP-9, FSRSLHSLL] (Ac-FSRSLHSLL-NH2)", "values": [{"measurement": "effect on CD spectra for Bcl-XL", "setting": "Bcl-XL", "value": "no effect"}, {"measurement": "competition for binding of FITC-L-NuBCP-9-r8 or FITC-D-NuBCP-9-r8 to Bcl-2", "setting": "Bcl-2 [8]", "value": "competed"}, {"measurement": "effect on CD spectra for GST", "setting": "GST [9]", "value": "no effect"}, {"measurement": "Kd", "setting": "GST-Bcl-2 [10]", "value": "2100 ± 200", "unit": "nM"}]}
{"molecule": "Bad BH3 peptide-CC-Ant: Bad BH3 peptide, Ser replaced with Ala, disulfide-linked to Ant (Ac-NLWAAQRYGRELRRMADEFVDAFKKCCRQIKIWFQNRRMKWKK-NH2; disulfide 26-27; also: Bad BH3 peptide and Ant are two peptides joined by C26-C27 disulfide, no peptide bond)", "values": [{"measurement": "effect of stable expression of Bcl-2 on induced apoptosis/cell death", "setting": "Jurkat or CEM cells", "value": "attenuated"}]}
{"molecule": "NuBCP-9/AA: unconjugated NuBCP-9 with Ala substituted for the terminal amino acids (Ac-ASRSLHSLAG[Ahx][dR][dR][dR][dR][dR][dR][dR][dR]-NH2; SMILES CC(=O)N[C@@H](C)C(=O)N[C@@H](CO)C(=O)N[C@@H](CCCNC(=N)N)C(=O)N[C@@H](CO)C(=O)N[C@@H](CC(C)C)C(=O)N[C@@H](Cc1c[nH]cn1)C(=O)N[C@@H](CO)C(=O)N[C@@H](CC(C)C)C(=O)N[C@@H](C)C(=O)NCC(=O)NCCCCCC(=O)N[C@H](CCCNC(=N)N)C(=O)N[C@H](CCCNC(=N)N)C(=O)N[C@H](CCCNC(=N)N)C(=O)N[C@H](CCCNC(=N)N)C(=O)N[C@H](CCCNC(=N)N)C(=O)N[C@H](CCCNC(=N)N)C(=O)N[C@H](CCCNC(=N)N)C(=O)N[C@H](CCCNC(=N)N)C(N)=O)", "values": [{"measurement": "effect on CD spectra for Bcl-XL", "setting": "Bcl-XL", "value": "no effect"}, {"measurement": "competition for binding of FITC-L-NuBCP-9-r8 or FITC-D-NuBCP-9-r8 to Bcl-2", "setting": "Bcl-2 [8]", "value": "did not"}, {"measurement": "effect on CD spectra for GST", "setting": "GST [9]", "value": "no effect"}, {"measurement": "changes in GST-Bcl-2 protein CD spectra", "setting": "GST-Bcl-2 [10]; peptide 30 μM, GST-Bcl-2 2 μM", "value": "not"}]}
{"molecule": "FITC-NuBCP-9-r8: FITC-conjugated NuBCP-9-r8 peptide for FP assays ({FITC}-FSRSLHSLLG[Ahx][dR][dR][dR][dR][dR][dR][dR][dR]-NH2)", "values": [{"measurement": "FP of FITC-peptide induced by GST-Bcl-2", "setting": "GST-Bcl-2 [11]", "value": "concentration-dependent FP"}, {"measurement": "FP of FITC-peptide induced by GST-Bcl-XL", "setting": "GST-Bcl-XL", "value": "not"}, {"measurement": "FP of FITC-peptide induced by GST", "setting": "GST [12]", "value": "not"}]}
{"molecule": "CN(C)CC[C@H](CSc1ccccc1)Nc1ccc(S(=O)(=O)NC(=O)c2ccc(N3CCN(Cc4ccccc4-c4ccc(Cl)cc4)CC3)cc2)cc1[N+](=O)[O-]", "note": "[ABT-737, reference compound]", "values": [{"measurement": "competition for binding of FITC-L-NuBCP-9-r8 or FITC-D-NuBCP-9-r8 to Bcl-2", "setting": "Bcl-2 [8]", "value": "failure"}]}
{"molecule": "CN[C@@H]1C[C@H]2O[C@@](C)([C@@H]1OC)n1c3ccccc3c3c4c(c5c6ccccc6n2c5c31)C(=O)NC4", "note": "[staurosporine]", "values": [{"measurement": "effect of stable expression of Bcl-2 on induced apoptosis/cell death", "setting": "Jurkat or CEM cells", "value": "attenuated"}]}
{"molecule": "FITC-NuBCP-9/AA-r8: FITC-conjugated NuBCP-9/AA-r8 peptide ({FITC}-ASRSLHSLAG[Ahx][dR][dR][dR][dR][dR][dR][dR][dR]-NH2)", "values": [{"measurement": "FP of FITC-peptide induced by GST-Bcl-2", "setting": "GST-Bcl-2 [11]", "value": "little affected"}]}
